{"source": "paper PMC4954676", "key": {"[1]": {"target": "rat thrombin (rat)"}, "[2]": {"target": "human thrombin (human)"}}, "data": [{"substance": "synthetic peptide containing NEP-truncated rat FpA and the first four residues of the main α-chain", "values": [{"measurement": "fold reduction of kcat/KM of cleavage by rat thrombin, truncated rat FpA peptide against the full-length rat FpA peptide", "setting": "[1]", "value": 5.7, "unit": "fold"}]}, {"substance": "synthetic peptide containing NEP-truncated human FpA and the first four residues of the main α-chain", "values": [{"measurement": "KM of cleavage of the peptide by thrombin (fluorescence polarisation cleavage assay, Michaelis-Menten fit)", "setting": "[2]", "value": 630, "unit": "µM"}, {"measurement": "fold reduction of kcat/KM of cleavage by thrombin, truncated FpA peptide against the full length peptide", "setting": "[2]", "value": 490, "unit": "fold"}, {"measurement": "kcat of cleavage of the peptide by thrombin (fluorescence polarisation cleavage assay, Michaelis-Menten fit)", "setting": "[2]", "value": 0.25, "unit": "s⁻¹"}]}, {"substance": "synthetic peptide containing full-length human FpA and the first four residues of the main α-chain", "values": [{"measurement": "KM of cleavage of the peptide by thrombin (fluorescence polarisation cleavage assay, Michaelis-Menten fit)", "setting": "[2]", "value": 51, "unit": "µM"}, {"measurement": "kcat of cleavage of the peptide by thrombin (fluorescence polarisation cleavage assay, Michaelis-Menten fit)", "setting": "[2]", "value": 9.1, "unit": "s⁻¹"}, {"measurement": "kcat/KM of cleavage of the peptide by thrombin (fluorescence polarisation cleavage assay, Michaelis-Menten fit)", "setting": "[2]", "value": 180000, "unit": "M⁻¹ s⁻¹"}]}]}
